Source: patent US20170212117A1 (RANDOX LABORATORIES, published 2017)

B1: Human neutrophil elastase (human sputum derived NE, Elastin Products SE563) (protein)
chain: IVGGRRARPHAWPFMVSLQLRGGHFCGATLIAPNFVMSAAHCVANVNVRAVRVVLGAHNLSRREPTRQVFAVQRIFENGYDPVNLLNDIVILQLNGSATINANVQVAQLPAQGRRLGNGVQCLAMGWGLLGRNRGIASVLQELNVTVVTSLCRRSNVCTLVRGRQAGVCFGDSGSPLVCNGLIHGIASFVRGGCASGLYPDAFAPVAQFVNWIDSIIQ
B2: C5.5 monoclonal antibody (supernatant of hybridoma clone C5.5) (antibody, V domains shown)
VH: EVQLVESGGGLVHPQGSLKLSCTASGFTFNTYDMNWVRQAPGKGLEWVARIRTKSYYYATYYADSVKDRFTISRDDSQTMLYLQLNNLKTEDTALYYCVRRSGNYGAMDYWGQGTSVTVSS
VL: QIVLTQSPAIMSASLGERVTMTCTASSSVSSSYLHWYQQKPGSSPKLWIYSTSNLASGVPARFSGSGSGTSYSLTISSMEAEDAATYYCHQYHRSPRTFGGGTKLEIK
notes: Used as cell-free hybridoma supernatant coated on the plate (capture antibody); also called C5.5 supernatant

Tests used:
[1] = biological target: T1, Recombinant human mature SLPI (Secretory leukocyte protease inhibitor)
T1 chain: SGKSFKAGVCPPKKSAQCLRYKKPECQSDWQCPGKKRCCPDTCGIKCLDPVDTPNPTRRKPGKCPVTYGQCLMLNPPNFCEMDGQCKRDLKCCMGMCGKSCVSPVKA

[2] = biological target: T2, Recombinant human mature SLPI (Secretory leukocyte protease inhibitor) (human, UniProt P03973 26-132); assay: sandwich ELISA, hybridoma supernatant as capture, biotinylated anti-SLPI PAb BAF1274 as detector
T2 construct: Bought from R&D Systems (product number 1274-PI-100); also called full length SLPI; full-length SLPI
Experimental: FIG. 4. Detection of C-SLPI in CF sputum samples. CF sputum samples were assayed via ELISA for the presence of C-SLPI using the supernatant from hybridoma clone C5.5 as a capture antibody. Standard curve generated by assaying known concentration of C-SLPI produced by incubation of recombinant SLPI with NE (A). C-SLPI concentrations in 63 sputum samples derived from CF patients as identified via ELISA using C5.5 as a capture antibody (B).
A Maxisorp plate (Nunc) was coated for 16 h at 4° C. with 100 μl/well hybridoma supernatant diluted 1:50 in Voller's reagent. Cell free hybridoma supernatants were acquired directly from individual cultures by centrifugation at 1,400 rpm for 5 min. The plate was blocked with 200 μl 1% BSA in PBST 0.05% (v/v) Tween 20 for 1 h at room temperature. Either a half concentration dilution series of 200 ng/ml to 3.125 ng/ml of both C-SLPI and SLPI (100 μl/well) in 1% BSA in PBST 0.05% (v/v) Tween 20 or CF sputum samples diluted 1:50 v/v in 1% BSA in PBST 0.05% (v/v) Tween 20 were added to the plate and incubated for 2 h at room temperature. Control wells received NE alone. […] The absorbance at 405 nm of wells was measured on a microtiter plate reader (Genios using Magellan software) and results were analyzed using GraphPad Prism version 6 (GraphPad Software).

| Binder | SLPI cleavage by NE (Western blot) [1] | binding result [2] |
| --- | --- | --- |
| B1 | Successful cleavage of SLPI was observed at molar ratios of 1:4, 1:8 and 1:10 SLPI to NE | – |
| B2 | – | no binding (tested: 200 ng/ml to 3.125 ng/ml) |
